Measurements: paper PMC7547085, “Specific and direct modulation of the interaction between adhesion GPCR GPR56/ADGRG1 and tissue transglutaminase 2 using synthetic ligands” (Scientific Reports, 2020)

B1: mouse tissue transglutaminase 2 C-terminal D3D4 domains (mTG2 D3D4) [modified: biotin on the AVI-tag; biotin on the AVI-tag] [mouse] / mouse full-length GPR56 (GPR56 FL), wild type, on HEK293T cells [mouse] (parent complex)
chain 1: TGVAMRIRVGDSMSMGNDFDVFAHIGNDTSETRECRLLLCARTVSYNGVLGPECGTEDINLTLDPYSENSIPLRILYEKYSGCLTESNLIKVRGLLIEPAANSYLLAERDLYLENPEIKIRVLGEPKQNRKLVAEVSLKNPLSDPLYDCIFTVEGAGLTKEQKSVEVSDPVPAGDLVKARVDLFPTDIGLHKLVVNFQCDKLKSVKGYRNVIIGPA
chain 2: GSPREDFRFCGQRNQTQQSTLHYDQSSEPHIFVWNTEETLTIRAPFLAAPDIPRFFPEPRGLYHFCLYWSRHTGRLHLRYGKHDYLLSSQASRLLCFQKQEQSLKQGAPLIATSVSSWQIPQNTSLPGAPSFIFSFHNAPHKVSHNASVDMCDLKKELQQLSRYLQHPQKAAKRPTAAFISQQLQSLESKLTSVSFLGDTLSFEEDRVNATVWKLPPTAGLEDLHIHSQKEEEQSEVQAYSLLLPRAVFQQTRGRRRDDAKRLLVVDFSSQALFQDKNSSQVLGEKVLGIVVQNTKVTNLSDPVVLTFQHQPQPKNVTLQCVFWVEDPASSSTGSWSSAGCETVSRDTQTSCLCNHLTYFAVLMVSSTEVEATHKHYLTLLSYVGCVISALACVFTIAAYLCSRRKSRDYTIKVHMNLLSAVFLLDVSFLLSEPVALTGSEAACRTSAMFLHFSLLACLSWMGLEGYNLYRLVVEVFGTYVPGYLLKLSIVGWGFPVFLVTLVALVDVNNYGPIILAVRRTPERVTYPSMCWIRDSLVSYVTNLGLFSLVFLFNLAMLATMVVQILRLRPHSQNWPHVLTLLGLSLVLGLPWALVFFSFASGTFQLVILYLFSIITSFQGFLIFLWYWSMRFQAQGGPSPLKNNSDSAKLPISSGSTSSSRI

Variants of: B1
Assay: flow cytometry on cells; 5 nM TG2 D3D4 (tetramerized); GPR56 FL constructs expressed on HEK293T cells; n = 3; parent: 1; read off a plot

ratio to parent | Variant
~4.7 | chain 2 R8E
~0.69 | chain 2 Q12A
~5.3 | chain 2 A112R, chain 2 S114R
~0.27 | chain 2 R79D
